{
  "source": "the DeepSol protein solubility set",
  "data": [
    {"experiment": "soluble on expression in E. coli; label from the status in PepcDB or PDB records", "values": [
      {"sequence": "MGSDKIHHHHHHMKKLVATAPRVAALVEYEDRAILANEVKIRVRFGAPKHGTEVVDFRAASPFIDEDFNGEWQMFTPRPADAPRGIEFGKFQLGNMVVGDIIECGSDVTDYAVGDSVCGYGPLSETVIINAVNNYKLRKMPQGSSWKNAVCYDPAQFAMSGVRDANVRVGDFVVVVGLGAIGQIAIQLAKRAGASVVIGVDPIAHRCDIARRHGADFCLNPIGTDVGKEIKTLTGKQGADVIIETSGYADALQSALRGLAYGGTISYVAFAKPFAEGFNLGREAHFNNAKIVFSRACSEPNPDYPRWSRKRIEETCWELLMNGYLNCEDLIDPVVTFANSPESYMQYVDQHPEQSIKMGVTF", "soluble on expression in E. coli": "not soluble"},
      {"sequence": "MSLKKPALKYCGIRSLKDLQLAAESQADYLGFIFAESKRKVSPEDVKKWLNQVRVEKQVAGVFVNESIETMSRIAKSLKLDVIQLHGDEKPADVAALRKLTGCEIWKALHHQDNTTQEIARFKDNVDGFVIDSSVKGSRGGTGVAFSWDCVPEYQQAAIGKRCFIAGGVNPDSITRLLKWQPEGIDLASGIEKNGQKDQNLMRLLEERMNRYVSISEEGHHHHHH", "soluble on expression in E. coli": "soluble"},
      {"sequence": "MSGCDAWEGDCCSRRCGAQDKEHPRYLIPELCKQFYHLGWVTGTGGGISLKHGDEIYIAPSGVQKERIQPEDMFVYDINEKDISGPSPSKKLKKSQCTPLFMNAYTMRGAGAVIHTHSKAAVMATLLFPGREFKITHQEMIKGIKKCTSGGYYRYDDMLVVPIIENTPEEKDLKDRMAHAMNEYPDSCAVLVRRHGVYVWGETWEKAKTMCECYDYLFDIAVSMKKVGLDPSQLPVGENGIV", "soluble on expression in E. coli": "soluble"},
      {"sequence": "GPMELAHREYQAGDFEAAERHCMQLWRQEPDNTGVLLLLSSIHFQCRRLDRSAHFSTLAIKQNPLLAEAYSNLGNVYKERGQLQEAIEHYRHALRLKPDFIDGYINLAAALVAAGDMEGAVQAYVSALQYNPDLYCVRSDLGNLLKALGRLEEAKACYLKAIETQPNFAVAWSNLGCVFNAQGEIWLAIHHFEKAVTLDPNFLDAYINLGNVLKEARIFDRAVAAYLRALSLSPNHAVVHGNLACVYYEQGLIDLAIDTYRRAIELQPHFPDAYCNLANALKEKGSVAEAEDCYNTALRLCPTHADSLNNLANIKREQGNIEEAVRLYRKALEVFPEFAAAHSNLASVLQQQGKLQEALMHYKEAIRISPTFADAYSNMGNTLKEMQD", "soluble on expression in E. coli": "soluble"},
      {"sequence": "AMSTQGLVQLLANAQCHLRTSTNYNGVHTQFNSALNYKNNGTNTIDGSEAWCSSIVDTNQYIVAGCEVPRTFMCVALQGRGDADQWVTSYKIRYSLDNVSWFEYRNGAAVTGVTDRNTVVNHFFDTPIRARSIAIHPLTWNGHISLRCEFYTQPVQSSVTQVGADIYTGDNCALNTGSGKREVVVPVKFQFEFATLPKVALNFDQIDCTDATNQTRIGVQPRNITTKGFDCVFYTWNENKVYSLRADYIATALE", "soluble on expression in E. coli": "soluble"},
      {"sequence": "MSLFTGENWDPYEWAKVFKKSGAKFVVLVAEHHDGFALWESNYTRWCATKIGPKRDIVRELKEAVEGQGLIFGISYHRAEHWWFFDQGMKIESDVKDPRYLDLYGPAQSASLNPRDPPSLDNVQPNDEFLMDWLLRIVEAVEKYRPWLVYFDWWIANPSFQPYLKAFASYYYNRSYKWGIEPVIIYKQGAFGEGTAIPDLAERGTIKNVYPSTWLADTSIDYKSWGYIKDAEYKLPSVILSHLGDVVSKNGVFLLNIGPKADGTIPEEAKRILLDVGDWLNVNGEAIFGSKPWRVYGEGPSGINEGGFFTERKITLGYQDVRYTVKDYYPRQRHIYAILFGKPKEITLRSFMKNLKLIEEAVIVDVSRLDGKGKLEWSLSDEGLKIKIEEVIRAPLVIRVILDYREGHHHHHH", "soluble on expression in E. coli": "not soluble"},
      {"sequence": "MSAEFNQLVAQFEQFQAKLHRVDQQFADLGQMQRELTELEVVATSADREVTVVAGPSGTIKDIRLTDQAMHRPPQALATALMATLRQAVAESARRQAGIVENALGDEMGLTEQVLETQAQLFGVTPQELRAMTEQAPGQPPAAPPPAPPAAGPGPQTPLAPPARPTPPRRPAPAEEADDFSQRGFLRDDDQQPRRPQADPGQKRDDRFLNLYDDEGR", "soluble on expression in E. coli": "not soluble"},
      {"sequence": "MVAVKREFELSHVFKDVSKLEDGNTFYGPEEEHFNVQWRIVLIHQKEDVAVFLRYLHPKNEQAPWKIDSEFTLKLSNSSGKSVTKTGSDIWNSYDALGFCDVFEWDSLLKDYLIDDVIIIEVAVKIKNMSGIPKKKLKSFERSNEEFSDVILAVGDKKFFVLRKFLASHSTYFETLLLGNFAEADKSEVKLQDINSTDFQNLMEVRYGEYAIDEETVDGILHLAHLYDMPFPIKRCEEFLVDSSEKSTKEKLKVAKKYQLENLKASCLAKINTLEEIKAALAGDLDEMDPSVVHALFRKSLALH", "soluble on expression in E. coli": "not soluble"},
      {"sequence": "MGSDKIHHHHHHMRCSPCRMQQAHTPPHSAKSIKHDVKRRIILDAARRMFAHDGAGSVSMRNLAREVGCSAAVLYRYFGSRESILWELRCEGIVLLNDALMGAADAADPLLRLQQLGRAYVSFGIDNLEYYELMFRTPFYEFDAGSLPDGLPDDALVLLHSTAAECLELGYFAGSDVTTVVSSMWSLVHGLVSLILNGRAPLMMGALDTHAMIDRVPDFIAGLARAARGGI", "soluble on expression in E. coli": "not soluble"},
      {"sequence": "MGSDKIHHHHHHMELVVDAHELKEWVYLLDKLVGTTEPTARFLSFFYRDGLWVSASDNCAKVEIFLGEIPRFEGSRIVSLDLVKYFLSDVKVSDVRITVLQERLVLKAGNEVLDVRCKTGEIPPGDGEEEFLCTLTKREFEGALNFASSNLDEGEFLILLFEEKDVLMFGASAGIMTLAQISTIPKKPFSTKIPYVTVRHIFKAFQRLDVQTLDFYEKSGKLVVKYPHFVMEVCGDEVSEEEIKKLKSLLEEKTAERIEARRQVLAKLVRKAAVLSRGDYATISRRGENLKVQVKRKNLSYTAELFVESGRDFVVVFPSKKLRSALARMDTERIFLEITERFLKISNFSGTRVIYLELEEFF", "soluble on expression in E. coli": "not soluble"},
      {"sequence": "MTDDVDTHIHEKFDLQKRLGKGAYGIVWKAYDKRSRETVALKKIFDAFRNPTDSQRTFREVMFLQEFGKHPNVIKLYNIFRADNDRDIYLAFEFMEADLHNVIKKGSILKDVHKQYIMCQLFRAIRFLHSGNVLHRDLKPSNVLLDADCRVKLADFGLARSLSSLEDYPEGQKMPDLTEYVATRWYRSPEILLAAKRYTKGVDMWSLGCILAEMLIGRALFPGSSTINQIERIMNTIAKPSRADIASIGSHYAASVLEKMPQRPRKPLDLIITQSQTAAIDMVQRLLIFAPQKRLTVEQCLVHPYVVQFHNPSEEPVLNYEVYPPLPDHIQLSIDDYRDRLYEMIDEKKASFKRIQHEKIRPYGEDKSRAPIAQAECSDTDYDTARSLQRTTSMDKNNSSSHDSSSGTLRERAASAESRTSKDSNGEMRNGNGNTPSSIKQRRRSVERARLFANIKPSKILHPHKLISNY", "soluble on expression in E. coli": "not soluble"},
      {"sequence": "VEPVDPCFRANCEYQCQPLNQTSYLCVCAEGFAPIPHEPHRCQLFCNQTACPADCDPNTQASCECPEGYILDDGFICTDIDECENGGFCSGVCHNLPGTFECICGPDSALAGQIGTDCDSG", "soluble on expression in E. coli": "soluble"},
      {"sequence": "MKWFRFPIAVIGLVLLSGCATQNESATQWLYPPMAVPLQASIQQEVQIARLSQLLQRTDLEPEIRAKMLFERGNYYDSVGLRDLARLDFTQSLSINPAQPDVFNLLGVYYTEAGEFDAAYESFDSTLELDPSNEYAVRNRAIALYYGERPQLALEEITKHYQQDPQDPFRALWLYIIESDIDPTKARTELLERYQQHDEQWGWVLVGLMLDQLSEEVAFKAIIAGSRENELLAQRLTEAYFYLGKRYQMQGELAHALSLYKLAISFNVYEYVEHRYAFLELGRIYQQAREEQLARAKAEAMTQ", "soluble on expression in E. coli": "not soluble"},
      {"sequence": "MLRGIVVVDFSHYLPGPFASWRLAQLGAEVIKIEPPSGDRLRPFAEGRLFAAYNAGKKSIGLDLKTDAGREQARRLAARADVVIESFRPGVMARLGLGYDDMCRMNEQIIYCSISGFGQQSGRSLLGSHDLNYMALSGLLAQLADERGRPVHPKITLADFIGGMAAAERILAALFARERTGKGAHLDVSLVDGLAAMMAGHFAIEHGGGPKTGLSELSGEVVCYQLYETKDGRYMSLAALEPHFWRRFCEAVGHPEWTEAQWAPARSGEAVYDELAALFREKTLDEWSAFAEAVDVCLAPVLETGEAKALFADSRLRHLVRLQPGGVWTAAHGPDGQWGGGEPPKVNEHAHLVKGEE", "soluble on expression in E. coli": "not soluble"},
      {"sequence": "MSEKLDLTRFEKKMVIRNIEEKDIDKIIDLQKDCFPGMEPWKREHLISHLEHFPEGQFCAEFEGEIIGSCSSLLINFDEYDDRHTWQDITDDGYITNHNPDGLNMYGIEVMVHPKYRRMKIGHRLYEARKDLARRLSLKSIIIGGRIPNYHKYAEEMTAREYVEQVTRHQIYDPVLSFQLMNGFTLMRINPNYLPDDTASIKY", "soluble on expression in E. coli": "not soluble"}
    ]}
  ]
}
